Laboratory results as given in paper PMC10755785 (The Journal of Biological Chemistry, 2023).
One block for each molecule: values may come before it.

What was measured:
[1] = target: σ^s (RpoS), His-tagged (Escherichia coli) (UniProt P13445); experiment: pull-down
[2] = target: σ^s (RpoS), His-tagged (Escherichia coli) (UniProt P13445); experiment: SEC
σ^s (RpoS), His-tagged = σ^s (RpoS), His-tagged (Escherichia coli, UniProt P13445 1-330); experiment: pull-down
σ^s (RpoS), His-tagged, sequence (P13445 whole entry): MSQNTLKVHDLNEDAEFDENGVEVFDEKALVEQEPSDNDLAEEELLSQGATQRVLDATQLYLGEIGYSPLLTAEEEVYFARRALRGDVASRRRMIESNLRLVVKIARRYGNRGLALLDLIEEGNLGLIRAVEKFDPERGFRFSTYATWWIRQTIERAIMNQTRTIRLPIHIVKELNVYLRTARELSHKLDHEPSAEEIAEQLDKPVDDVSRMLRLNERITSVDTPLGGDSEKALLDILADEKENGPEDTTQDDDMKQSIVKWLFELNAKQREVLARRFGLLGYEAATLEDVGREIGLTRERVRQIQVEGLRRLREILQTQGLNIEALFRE

σ^s (RpoS), His-tagged (Escherichia coli), sequence (P13445 whole entry): as above

- fold increase in pull-down efficiency with beryllofluoride against without [1]: 5 fold
Molecule: RssB (wild type, full length) (from UniProt P0AEV1 1-337) (natural protein)

- stoichiometry N [2]: 1 σ^s:RssB
Molecule: RssB∼P (RssB phosphorylated with acetyl phosphate) (from UniProt P0AEV1 1-337) (natural protein)

- percent of WT binding (σ^s (RpoS), His-tagged): ~50 % of WT
B1: RssB^F129A;S131A (natural protein, Escherichia coli)
chain: MTQPLVGKQILIVEDEQVFRSLLDSWFSSLGATTVLAADGVDALELLGGFTPDLMICDIAMPRMNGLKLLEHIRNRGDQTPVLVISATENMADIAKALRLGVEDVLLKPVKDLNRLREMVFACLYPSMANARVEEEERLFRDWDAMVDNPAAAAKLLQELQPPVQQVISHCRVNYRQLVAADKPGLVLDIAALSENDLAFYCLDVTRAGHNGVLAALLLRALFNGLLQEQLAHQNQRLPELGALLKQVNHLLRQANLPGQFPLLVGYYHRELKNLILVSAGLNATLNTGEHQVQISNGVPLGTLGNAYLNQLSQRCDAWQCQIWGTGGRLRLMLSAE
